Substrate in data set [1]: S=C=NCCc1ccccc1
The data set can be described thus: purified protein. The arrangement: Vmax: unit not given here. The conditions noted are these: co-substrate 1 mM GSH, 50 mM potassium phosphate pH 6.5, 150 mM NaCl, 30 °C. It counts as biochemical, Synechocystis sp. PCC 6803.

Data set [2] deals with the molecule itself. The data set can be described thus: SEC; Superdex 200 10/300 GL, 20 mM phosphate buffer pH 8.0, 150 mM NaCl, 2 mM GSH, 0.5 mL/min, 25°C; calibrated with molecular weight standards. (In gel filtration, larger molecules generally elute earlier.)

B1: Glutathione S-transferase sll0067 from Synechocystis PCC 6803 (enzyme, UniProt Q55139 1-184, looked up)
chain: MIKLYGAPQSRASIIQWYLEELSLPYEFVNVNLKEGEHRQAPYLAINPFGKVPAIADGNFHLWESGAILLYLAEKASTIPADAQARALVNQWILFANSTLANGLFIEAVREKEMPRLLQSLEKILGRSPFILGEKFSVVDVAVGSILAYVPIMLKLNFDDYPAVAAYVQGLVQRPAFQASIGAR
notes: gene of 0.55 kb amplified from genomic DNA with primers from the ATG to the stop codon; subunit of about 20 kDa; Cloned at BamHI and HindIII sites of pQE30 and purified on Ni-NTA; also called GST sll0067; recombinant sll0067; source: E. coli M15, purified (Ni-NTA agarose)
Regarding B1, in data set [1], the Michaelis-Menten constant (Km) was 319.3 ± 33 µM, the Vmax was 21.8, the kcat turned out to be 15.2 ± 0.58 s⁻¹ and the kcat/Km amounted to 47500 ± 620 M⁻¹ s⁻¹. The “stoichiometry N” value in data set [2] was found to be 2.

By Km is commonly meant the concentration of substrate that gives half-maximal velocity. By kcat is commonly meant the number of substrate molecules converted per active site and unit of time at saturation. Broadly, the kcat/Km is the turnover number divided by the Michaelis constant. In general, stoichiometry N refers to a count of units in the complex or per binding partner.

The values above are taken from publication PMC4429112, “Characterization of a Highly pH Stable Chi-Class Glutathione S-Transferase from Synechocystis PCC 6803” (PLoS ONE, 2015).
